Data taken from patent publication US20220089730A1 (published 2022).

Key:
[1] = target: CD8 (cell surface CD8 on HPB-ALL cells) (UniProt P01732 22-235; A6NJW9 19-210); assay: FACS
[2] = target: T1, PSMA (Prostate-Specific Membrane Antigen), glutamate carboxypeptidase 2 (UniProt Q04609 1-750); assay: FACS
[3] = target: T1, PSMA (Prostate-Specific Membrane …); assay: FACS; C4-2 XCL cells
[4] = target: T1, PSMA (Prostate-Specific Membrane …); assay: FACS; LNCaP-AR cells

CD8 (cell surface CD8 on HPB-ALL cells), sequence (P01732 22-235, chain 1 of 2): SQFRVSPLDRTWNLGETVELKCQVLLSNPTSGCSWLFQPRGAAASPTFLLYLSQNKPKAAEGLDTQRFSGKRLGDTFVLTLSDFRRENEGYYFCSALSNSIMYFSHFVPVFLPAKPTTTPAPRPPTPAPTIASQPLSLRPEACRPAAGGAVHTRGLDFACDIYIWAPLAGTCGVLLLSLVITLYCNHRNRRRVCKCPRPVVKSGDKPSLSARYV
CD8 (cell surface CD8 on HPB-ALL cells), sequence (A6NJW9 19-210 C51R/T71A, chain 2 of 2): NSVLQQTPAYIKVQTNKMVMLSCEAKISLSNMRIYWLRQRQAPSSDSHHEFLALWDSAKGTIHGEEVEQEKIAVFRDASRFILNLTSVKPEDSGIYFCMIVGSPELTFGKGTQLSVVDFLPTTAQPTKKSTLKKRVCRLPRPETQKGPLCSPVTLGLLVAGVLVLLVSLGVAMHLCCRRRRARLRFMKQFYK

B1: IAB22M γ1 EH3 (other)
chain: DVQITQSPSSLSASVGDRVTITCRTSRSISQYLAWYQQKPGKVPKLLIYSGSTLQSGVPSRFSGSGSGTDFTLTISSLQPEDVATYYCQQHNENPLTFGGGTKVEIKGSTSGGGSGGGSGGGGSSEVQLVESGGGLVQPGGSLRLSCAASGFNIKDTYIHFVRQAPGKGLEWIGRIDPANDNTLYASKFQGKATISADTSKNTAYLQMNSLRAEDTAVYYCGRGYGYYVFDHWGQGTLVTVSSEPKSSDKTHTCPPCPPCGGGSSGGGSGGQPREPQVYTLPPSRDELTKNQVSLTCLVKGFYPSDIAVEWESNGQPENNYKTTPPVLDSDGSFFLYSKLTVDKSRWQQGNVFSCSVMHEALHNHYTQKSLSLSPGK
- EC50 [1]: 0.37 nM

B2: IAB22M γ2 EH2 (other)
chain: DVQITQSPSSLSASVGDRVTITCRTSRSISQYLAWYQQKPGKVPKLLIYSGSTLQSGVPSRFSGSGSGTDFTLTISSLQPEDVATYYCQQHNENPLTFGGGTKVEIKGSTSGGGSGGGSGGGGSSEVQLVESGGGLVQPGGSLRLSCAASGFNIKDTYIHFVRQAPGKGLEWIGRIDPANDNTLYASKFQGKATISADTSKNTAYLQMNSLRAEDTAVYYCGRGYGYYVFDHWGQGTLVTVSSERKSCVECPPCPGGGSSGGGSGGQPREPQVYTLPPSREEMTKNQVSLTCLVKGFYPSDIAVEWESNGQPENNYKTTPPMLDSDGSFFLYSKLTVDKSRWQQGNVFSCSVMHEALHNHYTQKSLSLSPGK
- EC50 [1]: 0.156 nM

B3: IAB2M γ1 EH5 (other)
chain: DIVMTQSPSSLSASVGDRVTITCKASQDVGTAVDWYQQKPGKAPKLLIYWASTRHTGVPDRFTGSGSGTDFTLTISSLQPEDFADYFCQQYNSYPLTFGGGTKLEIKGSTSGGGSGGGSGGGGSSEVQLVQSGAEVKKPGASVKISCKTSGYTFTEYTIHWVKQASGKGLEWIGNINPNNGGTTYNQKFEDRATLTVDKSTSTAYMELSSLRSEDTAVYYCAAGWNFDYWGQGTTVTVSSEPKSSDKTHTCPPCPPCPPCGGGSSGGGSGGQPREPQVYTLPPSRDELTKNQVSLTCLVKGFYPSDIAVEWESNGQPENNYKTTPPVLDSDGSFFLYSKLTVDKSRWQQGNVFSCSVMHEALHNHYTQKSLSLSPGK
- EC50 [2]: 0.183 nM

B4: IAB2M γ2 EH1 (other)
chain: DIVMTQSPSSLSASVGDRVTITCKASQDVGTAVDWYQQKPGKAPKLLIYWASTRHTGVPDRFTGSGSGTDFTLTISSLQPEDFADYFCQQYNSYPLTFGGGTKLEIKGSTSGGGSGGGSGGGGSSEVQLVQSGAEVKKPGASVKISCKTSGYTFTEYTIHWVKQASGKGLEWIGNINPNNGGTTYNQKFEDRATLTVDKSTSTAYMELSSLRSEDTAVYYCAAGWNFDYWGQGTTVTVSSERKCCVECPPCPGGGSSGGGSGGQPREPQVYTLPPSREEMTKNQVSLTCLVKGFYPSDIAVEWESNGQPENNYKTTPPMLDSDGSFFLYSKLTVDKSRWQQGNVFSCSVMHEALHNHYTQKSLSLSPGK
- EC50 [3]: 0.27 nM

B5: IAB2M γ1 EH2 (other)
chain: DIVMTQSPSSLSASVGDRVTITCKASQDVGTAVDWYQQKPGKAPKLLIYWASTRHTGVPDRFTGSGSGTDFTLTISSLQPEDFADYFCQQYNSYPLTFGGGTKLEIKGSTSGGGSGGGSGGGGSSEVQLVQSGAEVKKPGASVKISCKTSGYTFTEYTIHWVKQASGKGLEWIGNINPNNGGTTYNQKFEDRATLTVDKSTSTAYMELSSLRSEDTAVYYCAAGWNFDYWGQGTTVTVSSEPKSSDKTHTCPPCGGGSSGGGSGGQPREPQVYTLPPSRDELTKNQVSLTCLVKGFYPSDIAVEWESNGQPENNYKTTPPVLDSDGSFFLYSKLTVDKSRWQQGNVFSCSVMHEALHNHYTQKSLSLSPGK
- EC50 [3]: 0.26 nM
- EC50 [4]: 0.06 nM

B6: IAB2M γ1 EH1 (other)
chain: DIVMTQSPSSLSASVGDRVTITCKASQDVGTAVDWYQQKPGKAPKLLIYWASTRHTGVPDRFTGSGSGTDFTLTISSLQPEDFADYFCQQYNSYPLTFGGGTKLEIKGSTSGGGSGGGSGGGGSSEVQLVQSGAEVKKPGASVKISCKTSGYTFTEYTIHWVKQASGKGLEWIGNINPNNGGTTYNQKFEDRATLTVDKSTSTAYMELSSLRSEDTAVYYCAAGWNFDYWGQGTTVTVSSEPKSCDKTHTCPPCGGGSSGGGSGGQPREPQVYTLPPSRDELTKNQVSLTCLVKGFYPSDIAVEWESNGQPENNYKTTPPVLDSDGSFFLYSKLTVDKSRWQQGNVFSCSVMHEALHNHYTQKSLSLSPGK
- EC50 [3]: 0.4 nM
- EC50 [4]: 0.05 nM

B7: IAB22M γ3/γ1 EH8 (other)
chain: DVQITQSPSSLSASVGDRVTITCRTSRSISQYLAWYQQKPGKVPKLLIYSGSTLQSGVPSRFSGSGSGTDFTLTISSLQPEDVATYYCQQHNENPLTFGGGTKVEIKGSTSGGGSGGGSGGGGSSEVQLVESGGGLVQPGGSLRLSCAASGFNIKDTYIHFVRQAPGKGLEWIGRIDPANDNTLYASKFQGKATISADTSKNTAYLQMNSLRAEDTAVYYCGRGYGYYVFDHWGQGTLVTVSSELKTPLGDTTHTCPPCPPCPPCGGGSSGGGSGGQPREPQVYTLPPSRDELTKNQVSLTCLVKGFYPSDIAVEWESNGQPENNYKTTPPVLDSDGSFFLYSKLTVDKSRWQQGNVFSCSVMHEALHNHYTQKSLSLSPGK
- EC50 [1]: 0.163 nM

B8: IAB22M γ1 EH5 (other)
chain: DVQITQSPSSLSASVGDRVTITCRTSRSISQYLAWYQQKPGKVPKLLIYSGSTLQSGVPSRFSGSGSGTDFTLTISSLQPEDVATYYCQQHNENPLTFGGGTKVEIKGSTSGGGSGGGSGGGGSSEVQLVESGGGLVQPGGSLRLSCAASGFNIKDTYIHFVRQAPGKGLEWIGRIDPANDNTLYASKFQGKATISADTSKNTAYLQMNSLRAEDTAVYYCGRGYGYYVFDHWGQGTLVTVSSEPKSSDKTHTCPPCPPCPPCGGGSSGGGSGGQPREPQVYTLPPSRDELTKNQVSLTCLVKGFYPSDIAVEWESNGQPENNYKTTPPVLDSDGSFFLYSKLTVDKSRWQQGNVFSCSVMHEALHNHYTQKSLSLSPGK
- EC50 [1]: 0.146 nM

B9: IAB22M γ3/γ1 EH7 (other)
chain: DVQITQSPSSLSASVGDRVTITCRTSRSISQYLAWYQQKPGKVPKLLIYSGSTLQSGVPSRFSGSGSGTDFTLTISSLQPEDVATYYCQQHNENPLTFGGGTKVEIKGSTSGGGSGGGSGGGGSSEVQLVESGGGLVQPGGSLRLSCAASGFNIKDTYIHFVRQAPGKGLEWIGRIDPANDNTLYASKFQGKATISADTSKNTAYLQMNSLRAEDTAVYYCGRGYGYYVFDHWGQGTLVTVSSELKTPLGDTTHTCPPCPPCGGGSSGGGSGGQPREPQVYTLPPSRDELTKNQVSLTCLVKGFYPSDIAVEWESNGQPENNYKTTPPVLDSDGSFFLYSKLTVDKSRWQQGNVFSCSVMHEALHNHYTQKSLSLSPGK
- EC50 [1]: 0.17 nM

B10: IAB22M γ3/γ1 EH6 (other)
chain: DVQITQSPSSLSASVGDRVTITCRTSRSISQYLAWYQQKPGKVPKLLIYSGSTLQSGVPSRFSGSGSGTDFTLTISSLQPEDVATYYCQQHNENPLTFGGGTKVEIKGSTSGGGSGGGSGGGGSSEVQLVESGGGLVQPGGSLRLSCAASGFNIKDTYIHFVRQAPGKGLEWIGRIDPANDNTLYASKFQGKATISADTSKNTAYLQMNSLRAEDTAVYYCGRGYGYYVFDHWGQGTLVTVSSELKTPLGDTTHTCVECPPCGGGSSGGGSGGQPREPQVYTLPPSRDELTKNQVSLTCLVKGFYPSDIAVEWESNGQPENNYKTTPPVLDSDGSFFLYSKLTVDKSRWQQGNVFSCSVMHEALHNHYTQKSLSLSPGK
- EC50 [1]: 0.188 nM

B11: IAB2M γ1 EH3 (other)
chain: DIVMTQSPSSLSASVGDRVTITCKASQDVGTAVDWYQQKPGKAPKLLIYWASTRHTGVPDRFTGSGSGTDFTLTISSLQPEDFADYFCQQYNSYPLTFGGGTKLEIKGSTSGGGSGGGSGGGGSSEVQLVQSGAEVKKPGASVKISCKTSGYTFTEYTIHWVKQASGKGLEWIGNINPNNGGTTYNQKFEDRATLTVDKSTSTAYMELSSLRSEDTAVYYCAAGWNFDYWGQGTTVTVSSEPKSSDKTHTCPPCPPCGGGSSGGGSGGQPREPQVYTLPPSRDELTKNQVSLTCLVKGFYPSDIAVEWESNGQPENNYKTTPPVLDSDGSFFLYSKLTVDKSRWQQGNVFSCSVMHEALHNHYTQKSLSLSPGK
- EC50 [2]: 0.162 nM
- EC50 [3]: 0.38 nM

B12: IAB2M γ3/γ1 EH7 (other)
chain: DIVMTQSPSSLSASVGDRVTITCKASQDVGTAVDWYQQKPGKAPKLLIYWASTRHTGVPDRFTGSGSGTDFTLTISSLQPEDFADYFCQQYNSYPLTFGGGTKLEIKGSTSGGGSGGGSGGGGSSEVQLVQSGAEVKKPGASVKISCKTSGYTFTEYTIHWVKQASGKGLEWIGNINPNNGGTTYNQKFEDRATLTVDKSTSTAYMELSSLRSEDTAVYYCAAGWNFDYWGQGTTVTVSSELKTPLGDTTHTCPPCPPCGGGSSGGGSGGQPREPQVYTLPPSRDELTKNQVSLTCLVKGFYPSDIAVEWESNGQPENNYKTTPPVLDSDGSFFLYSKLTVDKSRWQQGNVFSCSVMHEALHNHYTQKSLSLSPGK
- EC50 [2]: 0.186 nM

B13: IAB2M γ3/γ1 EH6 (other)
chain: DIVMTQSPSSLSASVGDRVTITCKASQDVGTAVDWYQQKPGKAPKLLIYWASTRHTGVPDRFTGSGSGTDFTLTISSLQPEDFADYFCQQYNSYPLTFGGGTKLEIKGSTSGGGSGGGSGGGGSSEVQLVQSGAEVKKPGASVKISCKTSGYTFTEYTIHWVKQASGKGLEWIGNINPNNGGTTYNQKFEDRATLTVDKSTSTAYMELSSLRSEDTAVYYCAAGWNFDYWGQGTTVTVSSELKTPLGDTTHTCVECPPCGGGSSGGGSGGQPREPQVYTLPPSRDELTKNQVSLTCLVKGFYPSDIAVEWESNGQPENNYKTTPPVLDSDGSFFLYSKLTVDKSRWQQGNVFSCSVMHEALHNHYTQKSLSLSPGK
- EC50 [2]: 0.188 nM

B14: IAB2M γ3/γ1 EH8 (other)
chain: DIVMTQSPSSLSASVGDRVTITCKASQDVGTAVDWYQQKPGKAPKLLIYWASTRHTGVPDRFTGSGSGTDFTLTISSLQPEDFADYFCQQYNSYPLTFGGGTKLEIKGSTSGGGSGGGSGGGGSSEVQLVQSGAEVKKPGASVKISCKTSGYTFTEYTIHWVKQASGKGLEWIGNINPNNGGTTYNQKFEDRATLTVDKSTSTAYMELSSLRSEDTAVYYCAAGWNFDYWGQGTTVTVSSELKTPLGDTTHTCPPCPPCPPCGGGSSGGGSGGQPREPQVYTLPPSRDELTKNQVSLTCLVKGFYPSDIAVEWESNGQPENNYKTTPPVLDSDGSFFLYSKLTVDKSRWQQGNVFSCSVMHEALHNHYTQKSLSLSPGK
- EC50 [2]: 0.227 nM
